Values of other authors, collected in publication PMC3090270.

Molecular target: PKA RII alpha D/D (UniProt P12367)
Sequence (P12367 2-45): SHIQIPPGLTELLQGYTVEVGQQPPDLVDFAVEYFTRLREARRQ

Chain of D-AKAP2 AKB (O43572 623-649): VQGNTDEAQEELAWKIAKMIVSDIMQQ

Kd: 2 nM
Substance: D-AKAP2 AKB (from UniProt O43572)
